Laboratory results published in patent US20210246166A1 (Bayer, published 2021).
Numbered stars: 1 amine (or outer) side, 2 acyl side, 3 side chain; on linkers, the order of the positions; unused ones are H or OH. Bridge positions count the residues as written; N and C are the ends. Square brackets hold non-standard residues; d marks the D form. Primed or numbered codes have the meaning given here. Ends that are not written are not given here. * marks the point of attachment. X13 = (2S)‑2‑amino‑3‑(1-methylcyclopropyl)propanoic acid, CC1(C[C@H](N[*:1])C(=O)[*:2])CC1; Tranexamic″ = tranexamic acid, NC[C@H]1CC[C@@H](C(=O)*)CC1; X5 = Tetrahydropyranyl‑4‑acetic acid, O=C(CC1CCOCC1)*; Phe(2,5-diF) = O=C([C@H](Cc1cc(F)ccc1F)N[*:1])[*:2]; Oic = O=C(O)[C@@H]1C[C@@H]2CCCC[C@@H]2N1; Cyclobutylacetic = O=C(CC1CCC1)*; tBuAla = CC(C)(C)C[C@H](N)C(=O)O; Pen = CC(C)(S)[C@H](N)C(=O)O; ΔPro = O=C(O)[C@@H]1C=CCN1; NMeC = CN[C@@H](CS)C(=O)O; Nva = CCC[C@H](N)C(=O)O; Ac4c = NC1(C(=O)O)CCC1; PEG2 = NCCOCCOCCC(=O)O; Sar = CNCC(=O)O

T1: recombinant rat MASP1 active protease (amino acids 302-704, C-terminal His Tag) (rat, UniProt Q8CHN8 302-704)
T1 sequence: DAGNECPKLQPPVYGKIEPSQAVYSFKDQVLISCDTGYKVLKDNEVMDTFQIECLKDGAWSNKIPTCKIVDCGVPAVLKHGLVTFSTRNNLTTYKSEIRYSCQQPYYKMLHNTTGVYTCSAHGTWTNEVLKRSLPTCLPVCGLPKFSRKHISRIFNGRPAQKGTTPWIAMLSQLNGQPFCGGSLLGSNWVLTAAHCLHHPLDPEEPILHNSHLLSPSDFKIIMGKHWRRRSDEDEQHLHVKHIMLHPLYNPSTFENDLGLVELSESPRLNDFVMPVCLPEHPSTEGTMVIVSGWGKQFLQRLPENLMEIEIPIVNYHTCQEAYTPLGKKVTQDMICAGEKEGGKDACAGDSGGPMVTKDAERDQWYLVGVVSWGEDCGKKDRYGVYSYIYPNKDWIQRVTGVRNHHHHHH


What was measured:
[1] = target: T1, recombinant rat MASP1 active protease …; assay: cell-based or functional assay
[2] = target: recombinant rat MASP2 active protease (amino acids 296-685, C-terminal His Tag) (rat, UniProt Q9JJS8 296-685); assay: cell-based or functional assay
recombinant rat MASP2 active protease (amino acids 296-685, C-terminal His Tag), sequence (Q9JJS8 other isoform, or with tags, fused parts or gaps limits assumed): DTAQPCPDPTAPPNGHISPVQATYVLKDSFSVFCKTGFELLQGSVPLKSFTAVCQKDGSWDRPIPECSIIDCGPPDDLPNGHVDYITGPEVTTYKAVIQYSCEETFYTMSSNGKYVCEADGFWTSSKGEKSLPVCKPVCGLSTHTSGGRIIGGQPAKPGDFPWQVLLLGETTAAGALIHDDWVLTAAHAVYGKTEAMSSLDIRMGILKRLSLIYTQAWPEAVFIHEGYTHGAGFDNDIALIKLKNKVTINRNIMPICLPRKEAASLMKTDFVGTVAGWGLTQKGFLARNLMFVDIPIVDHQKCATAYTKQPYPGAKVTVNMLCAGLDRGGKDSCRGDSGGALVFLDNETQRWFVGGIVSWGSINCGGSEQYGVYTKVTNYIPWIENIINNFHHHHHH

Binder | rat MASP1 IC50 [1] [nM] | rat MASP2 IC50 [2] [nM]
A[Nva]CSRS[tBuAla]PPI[Pen]IPD-NH2 (disulfide 3-11; N-terminus assumed; SMILES CCC[C@H](NC(=O)[C@H](C)N)C(=O)N[C@H]1CSSC(C)(C)[C@@H](C(=O)N[C@H](C(=O)N2CCC[C@H]2C(=O)N[C@@H](CC(=O)O)C(N)=O)[C@@H](C)CC)NC(=O)[C@H]([C@@H](C)CC)NC(=O)[C@@H]2CCCN2C(=O)[C@@H]2CCCN2C(=O)[C@H](CC(C)(C)C)NC(=O)[C@H](CO)NC(=O)[C@H](CCCNC(=N)N)NC(=O)[C@H](CO)NC1=O) [Example 199: A-(Nva)-C+SRS-((tBu)A)-PPI-(Pen)+IPD-NH2] | 180 | 49
GICSRS[tBuAla]P[Oic]I[NMeC]IPD-NH2 (disulfide 3-11; N-terminus assumed; SMILES CC[C@H](C)[C@H](NC(=O)CN)C(=O)N[C@H]1CSSC[C@@H](C(=O)N[C@H](C(=O)N2CCC[C@H]2C(=O)N[C@@H](CC(=O)O)C(N)=O)[C@@H](C)CC)N(C)C(=O)[C@H]([C@@H](C)CC)NC(=O)[C@@H]2C[C@@H]3CCCC[C@@H]3N2C(=O)[C@@H]2CCCN2C(=O)[C@H](CC(C)(C)C)NC(=O)[C@H](CO)NC(=O)[C@H](CCCNC(=N)N)NC(=O)[C@H](CO)NC1=O) [Example 212: GIC+SRS-((tBu)A)-P-(Oic)-I-((N-Me)C)+IPD-NH2] | 24.6 | 34.5
{2‑(3-Pyridyl)acetic acid}-ICSRS[tBuAla]PPI[Pen]IP-NH2 (disulfide 2-10) [Example 226: (2-(3-Pyridyl)acetic acid)-IC+SRS-((tBu)A)-PPI-(Pen)+IP-NH2] | 29 | 2.9
[Ac4c]ICSRS[tBuAla]PPI[Pen]I-NH2 (disulfide 3-11; N-terminus assumed; SMILES CC[C@H](C)[C@H](NC(=O)[C@H]1NC(=O)[C@H]([C@@H](C)CC)NC(=O)[C@@H]2CCCN2C(=O)[C@@H]2CCCN2C(=O)[C@H](CC(C)(C)C)NC(=O)[C@H](CO)NC(=O)[C@H](CCCNC(=N)N)NC(=O)[C@H](CO)NC(=O)[C@@H](NC(=O)[C@@H](NC(=O)C2(N)CCC2)[C@@H](C)CC)CSSC1(C)C)C(N)=O) [Example 208: (ACBA)-IC+SRS-((tBu)A)-PPI-(Pen)+I-NH2] | 61 | 8.6
[Sar]ICSRS[tBuAla]PPI[Pen]IP-{PEG2-NH2} (disulfide 3-11) [Example 207: ((N-Me)G)-IC+SRS-((tBu)A)-PPI-(Pen)+IP-(PEG1(10 atoms))-NH2] | 43 | 33.6
AICSRS[Phe(2,5-diF)]PPI[NMeC]IPD-NH2 (disulfide 3-11; N-terminus assumed; SMILES CC[C@H](C)[C@H](NC(=O)[C@H](C)N)C(=O)N[C@H]1CSSC[C@@H](C(=O)N[C@H](C(=O)N2CCC[C@H]2C(=O)N[C@@H](CC(=O)O)C(N)=O)[C@@H](C)CC)N(C)C(=O)[C@H]([C@@H](C)CC)NC(=O)[C@@H]2CCCN2C(=O)[C@@H]2CCCN2C(=O)[C@H](Cc2cc(F)ccc2F)NC(=O)[C@H](CO)NC(=O)[C@H](CCCNC(=N)N)NC(=O)[C@H](CO)NC1=O) [Example 235: AIC+SRS-((2,5-Difluoro)F)-PPI-((N-Me)C)+IPD-NH2] | 380 | 29
[Sar]ICSRSLPPI[NMeC]IPD-OH (disulfide 3-11; N-terminus assumed; SMILES CC[C@H](C)[C@H](NC(=O)CNC)C(=O)N[C@H]1CSSC[C@@H](C(=O)N[C@H](C(=O)N2CCC[C@H]2C(=O)N[C@@H](CC(=O)O)C(=O)O)[C@@H](C)CC)N(C)C(=O)[C@H]([C@@H](C)CC)NC(=O)[C@@H]2CCCN2C(=O)[C@@H]2CCCN2C(=O)[C@H](CC(C)C)NC(=O)[C@H](CO)NC(=O)[C@H](CCCNC(=N)N)NC(=O)[C@H](CO)NC1=O) [Example 232: ((N-Me)G)-IC+SRSLPPI-((N-Me)C)+IPD-OH] | 67.3 | 125
FICSRS[tBuAla]PPI[Pen]IPD-NH2 (disulfide 3-11; N-terminus assumed; SMILES CC[C@H](C)[C@H](NC(=O)[C@@H](N)Cc1ccccc1)C(=O)N[C@H]1CSSC(C)(C)[C@@H](C(=O)N[C@H](C(=O)N2CCC[C@H]2C(=O)N[C@@H](CC(=O)O)C(N)=O)[C@@H](C)CC)NC(=O)[C@H]([C@@H](C)CC)NC(=O)[C@@H]2CCCN2C(=O)[C@@H]2CCCN2C(=O)[C@H](CC(C)(C)C)NC(=O)[C@H](CO)NC(=O)[C@H](CCCNC(=N)N)NC(=O)[C@H](CO)NC1=O) [Example 211: FIC+SRS-((tBu)A)-PPI-(Pen)+IPD-NH2] | 75 | 23
AICSRSLP[Oic]ICIPD-NH2 (disulfide 3-11; N-terminus assumed; SMILES CC[C@H](C)[C@H](NC(=O)[C@H](C)N)C(=O)N[C@H]1CSSC[C@@H](C(=O)N[C@H](C(=O)N2CCC[C@H]2C(=O)N[C@@H](CC(=O)O)C(N)=O)[C@@H](C)CC)NC(=O)[C@H]([C@@H](C)CC)NC(=O)[C@@H]2C[C@@H]3CCCC[C@@H]3N2C(=O)[C@@H]2CCCN2C(=O)[C@H](CC(C)C)NC(=O)[C@H](CO)NC(=O)[C@H](CCCNC(=N)N)NC(=O)[C@H](CO)NC1=O) [Example 224: AIC+SRSLP-(Oic)-IC+IPD-NH2] | 60.4 | 42.4

More lines, now with the values ahead:

rat MASP1 IC50 [1] [nM] | rat MASP2 IC50 [2] [nM] | Binder
76 | 5.3 | X5-ICSRS[tBuAla]PPI[NMeC]I-NH2 (disulfide 2-10; SMILES CC[C@H](C)[C@H](NC(=O)[C@@H]1CSSC[C@H](NC(=O)[C@@H](NC(=O)CC2CCOCC2)[C@@H](C)CC)C(=O)N[C@@H](CO)C(=O)N[C@@H](CCCNC(=N)N)C(=O)N[C@@H](CO)C(=O)N[C@@H](CC(C)(C)C)C(=O)N2CCC[C@H]2C(=O)N2CCC[C@H]2C(=O)N[C@@H]([C@@H](C)CC)C(=O)N1C)C(N)=O) [Example 305: (Tetrahydropyranyl-4-acetic acid)-IC+SRS-((tBu)A)-PPI-((N-Me)C)+I-NH2]
130 | 42 | [Sar]ICSRS[X13]P[Oic]I[Pen]IP-NH2 (disulfide 3-11; N-terminus assumed; SMILES CC[C@H](C)[C@H](NC(=O)CNC)C(=O)N[C@H]1CSSC(C)(C)[C@@H](C(=O)N[C@H](C(=O)N2CCC[C@H]2C(N)=O)[C@@H](C)CC)NC(=O)[C@H]([C@@H](C)CC)NC(=O)[C@@H]2C[C@@H]3CCCC[C@@H]3N2C(=O)[C@@H]2CCCN2C(=O)[C@H](CC2(C)CC2)NC(=O)[C@H](CO)NC(=O)[C@H](CCCNC(=N)N)NC(=O)[C@H](CO)NC1=O)
60 | 9.7 | Cyclobutylacetic-ICSRS[tBuAla]PPI[Pen]IP-NH2 (disulfide 2-10; SMILES CC[C@H](C)[C@H](NC(=O)CC1CCC1)C(=O)N[C@H]1CSSC(C)(C)[C@@H](C(=O)N[C@H](C(=O)N2CCC[C@H]2C(N)=O)[C@@H](C)CC)NC(=O)[C@H]([C@@H](C)CC)NC(=O)[C@@H]2CCCN2C(=O)[C@@H]2CCCN2C(=O)[C@H](CC(C)(C)C)NC(=O)[C@H](CO)NC(=O)[C@H](CCCNC(=N)N)NC(=O)[C@H](CO)NC1=O) [Example 284: (Cyclobutylacetic)-IC+SRS-((tBu)A)-PPI-(Pen)+IP-NH2]
1000 | 1000 | AICSRSL[ΔPro][Oic]I[Pen]IPD-OH (disulfide 3-11; N-terminus assumed; SMILES CC[C@H](C)[C@H](NC(=O)[C@H](C)N)C(=O)N[C@H]1CSSC(C)(C)[C@@H](C(=O)N[C@H](C(=O)N2CCC[C@H]2C(=O)N[C@@H](CC(=O)O)C(=O)O)[C@@H](C)CC)NC(=O)[C@H]([C@@H](C)CC)NC(=O)[C@@H]2C[C@@H]3CCCC[C@@H]3N2C(=O)[C@@H]2C=CCN2C(=O)[C@H](CC(C)C)NC(=O)[C@H](CO)NC(=O)[C@H](CCCNC(=N)N)NC(=O)[C@H](CO)NC1=O) [Example 237: AIC+SRSL-(L-dehydroproline)-(Oic)-I-(Pen)+IPD-OH]
270 | 308 | [Sar]ICSRSLPPICIPD-OH (disulfide 3-11; N-terminus assumed; SMILES CC[C@H](C)[C@H](NC(=O)CNC)C(=O)N[C@H]1CSSC[C@@H](C(=O)N[C@H](C(=O)N2CCC[C@H]2C(=O)N[C@@H](CC(=O)O)C(=O)O)[C@@H](C)CC)NC(=O)[C@H]([C@@H](C)CC)NC(=O)[C@@H]2CCCN2C(=O)[C@@H]2CCCN2C(=O)[C@H](CC(C)C)NC(=O)[C@H](CO)NC(=O)[C@H](CCCNC(=N)N)NC(=O)[C@H](CO)NC1=O) [Example 281: ((N-Me)G)-IC+SRSLPPIC+IPD-OH]
120 | 9.6 | {Tranexamic″}-ICSRS[tBuAla]PPI[Pen]IP-NH2 (disulfide 2-10; SMILES CC[C@H](C)[C@@H]1NC(=O)[C@@H]2CCCN2C(=O)[C@@H]2CCCN2C(=O)[C@H](CC(C)(C)C)NC(=O)[C@H](CO)NC(=O)[C@H](CCCNC(=N)N)NC(=O)[C@H](CO)NC(=O)[C@@H](NC(=O)[C@@H](NC(=O)[C@H]2CC[C@@H](CN)CC2)[C@@H](C)CC)CSSC(C)(C)[C@@H](C(=O)N[C@H](C(=O)N2CCC[C@H]2C(N)=O)[C@@H](C)CC)NC1=O) [Example 269: (Tranexamic)-IC+SRS-((tBu)A)-PPI-(Pen)+IP-NH2]
88.7 | 55.2 | [Sar]ICSRSLPPICIPD-NH2 (disulfide 3-11; N-terminus assumed; SMILES CC[C@H](C)[C@H](NC(=O)CNC)C(=O)N[C@H]1CSSC[C@@H](C(=O)N[C@H](C(=O)N2CCC[C@H]2C(=O)N[C@@H](CC(=O)O)C(N)=O)[C@@H](C)CC)NC(=O)[C@H]([C@@H](C)CC)NC(=O)[C@@H]2CCCN2C(=O)[C@@H]2CCCN2C(=O)[C@H](CC(C)C)NC(=O)[C@H](CO)NC(=O)[C@H](CCCNC(=N)N)NC(=O)[C@H](CO)NC1=O) [Example 271: ((N-Me)G)-IC+SRSLPPIC+IPD-NH2]
